# From IntAct's records for PubMed 9701578
# B1: Receptor protein kinase CLAVATA1 (Arabidopsis thaliana (Mouse-ear cress)), Q9SYQ8 (parent)
# chain: MAMRLLKTHLLFLHLYLFFSPCFAYTDMEVLLNLKSSMIGPKGHGLHDWIHSSSPDAHCSFSGVSCDDDARVISLNVSFTPLFGTISPEIGMLTHLVNLTLAANNFTGELPLEMKSLTSLKVLNISNNGNLTGTFPGEILKAMVDLEVLDTYNNNFNGKLPPEMSELKKLKYLSFGGNFFSGEIPESYGDIQSLEYLGLNGAGLSGKSPAFLSRLKNLREMYIGYYNSYTGGVPPEFGGLTKLEILDMASCTLTGEIPTSLSNLKHLHTLFLHINNLTGHIPPELSGLVSLKSLDLSINQLTGEIPQSFINLGNITLINLFRNNLYGQIPEAIGELPKLEVFEVWENNFTLQLPANLGRNGNLIKLDVSDNHLTGLIPKDLCRGEKLEMLILSNNFFFGPIPEELGKCKSLTKIRIVKNLLNGTVPAGLFNLPLVTIIELTDNFFSGELPVTMSGDVLDQIYLSNNWFSGEIPPAIGNFPNLQTLFLDRNRFRGNIPREIFELKHLSRINTSANNITGGIPDSISRCSTLISVDLSRNRINGEIPKGINNVKNLGTLNISGNQLTGSIPTGIGNMTSLTTLDLSFNDLSGRVPLGGQFLVFNETSFAGNTYLCLPHRVSCPTRPGQTSDHNHTALFSPSRIVITVIAAITGLILISVAIRQMNKKKNQKSLAWKLTAFQKLDFKSEDVLECLKEENIIGKGGAGIVYRGSMPNNVDVAIKRLVGRGTGRSDHGFTAEIQTLGRIRHRHIVRLLGYVANKDTNLLLYEYMPNGSLGELLHGSKGGHLQWETRHRVAVEAAKGLCYLHHDCSPLILHRDVKSNNILLDSDFEAHVADFGLAKFLVDGAASECMSSIAGSYGYIAPEYAYTLKVDEKSDVYSFGVVLLELIAGKKPVGEFGEGVDIVRWVRNTEEEITQPSDAAIVVAIVDPRLTGYPLTSVIHVFKIAMMCVEEEAAARPTMREVVHMLTNPPKSVANLIAF
# partner: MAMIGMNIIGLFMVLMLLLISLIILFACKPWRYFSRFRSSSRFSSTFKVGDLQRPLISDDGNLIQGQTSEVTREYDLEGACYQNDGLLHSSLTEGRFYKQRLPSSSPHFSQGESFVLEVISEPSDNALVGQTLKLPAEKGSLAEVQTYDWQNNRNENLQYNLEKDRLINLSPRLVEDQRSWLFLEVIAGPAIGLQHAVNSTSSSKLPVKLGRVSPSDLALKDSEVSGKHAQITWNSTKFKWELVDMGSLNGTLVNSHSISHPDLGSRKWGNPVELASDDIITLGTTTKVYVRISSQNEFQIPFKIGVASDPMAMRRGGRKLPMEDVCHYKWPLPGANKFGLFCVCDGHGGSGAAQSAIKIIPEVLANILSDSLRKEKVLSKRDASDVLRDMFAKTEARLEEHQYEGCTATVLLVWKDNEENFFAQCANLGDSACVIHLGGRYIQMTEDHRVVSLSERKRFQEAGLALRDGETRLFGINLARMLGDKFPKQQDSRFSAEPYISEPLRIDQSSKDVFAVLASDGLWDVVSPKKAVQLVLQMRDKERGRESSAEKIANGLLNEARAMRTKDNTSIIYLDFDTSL
# Variants of: B1
# Settings: with KAPP
row,effect of a mutation on the interaction,Variant
1,disrupting interaction,K720E
